US20240181022A1, “AMURINS LYSINS, AND LYSIN-ANTIMICROBIAL PEPTIDE (AMP) CONSTRUCTS ACTIVE AGAINST GRAM-NEGATIVE BACTERIA” (priority 2021, published 2024)

What was measured:
E. coli = experiment: GN370 time-kill assay, E. coli; format: cell-based, Escherichia coli; conditions: for Log10 CFU/mL: E. coli AR-128
Description: A kinetic analysis of GN370 bactericidal activity was performed using a time-kill assay format in which CFU reductions of each target organism (P. aeruginosa, K. pneumoniae, A. baumannii, E. coli, and E. cloacae) were measured over 24 hours at 37° C. […] Bactericidal activity was defined as CFU reductions of ≥3-log 10 CFU/mL as compared to the inoculum at the 24-hour time point. See Methods for Determining Bactericidal Activity of Antimicrobial Agents; Approved Guideline, NCCLS document M26-A, CLSI 1999 (Wayne, PA).

E. cloacae = experiment: GN370 time-kill assay, E. cloacae; format: cell-based, Enterobacter cloacae; conditions: for Log10 CFU/mL: E. cloacae ATCC 29941
Description: A kinetic analysis of GN370 bactericidal activity was performed using a time-kill assay format in which CFU reductions of each target organism (P. aeruginosa, K. pneumoniae, A. baumannii, E. coli, and E. cloacae) were measured over 24 hours at 37° C. […] Bactericidal activity was defined as CFU reductions of ≥3-log 10 CFU/mL as compared to the inoculum at the 24-hour time point.

[1] = system: Ralstonia mannitolilytica; experiment: MIC by broth microdilution against Ralstonia mannitolilytica; format: cell-based; conditions: N 10
Description: (§1) MIC values were determined by broth microdilution against clinical isolates and resistant isolates from a wide range of bacterial species, including isolates from the CDC Antibiotic Resistance bank, including the GN ESKAPE pathogens and E. coli, including carbapenem-resistant Enterobacteriaciae, Acinetobacter, and Pseudomonas.

Burkholderia cepacia = experiment: MIC by broth microdilution against Burkholderia cepacia; format: cell-based; conditions: N 9
Description: as §1

B1: GN370: lysin-AMP construct, SEQ ID NO: 149: MIDR, FIRL and NPTH moieties N-terminal to GN202 lysin (protein)
chain: MIDRFIRLNPTHGPRRPRRPGRRAPVRTSQRGIDLIKSFEGLRLSAYQDSVGVWTIGYGTTRGVTRYMTITVEQAERMLSNDIQRFEPELDRLAKVPLNQNQWDALMSFVYNLGAANLASSTLLDLLNKGDYQGAADQFPHWVNAGGKRLDGLVKRRAAERALFLEPLS
modifications: GN370 lysin
Log10 CFU/mL (E. coli; 0.2x MIC, 24 hr): 8.4 Log10 CFU/mL | Log10 CFU/mL (E. coli; 1x MIC, 1 hr): 4.4 Log10 CFU/mL | Log10 CFU/mL (E. coli; 1x MIC, 3 hr): 2.5 Log10 CFU/mL | Log10 CFU/mL (E. coli; 2x MIC, 1 hr): 4.4 Log10 CFU/mL | Log10 CFU/mL (E. coli; 2x MIC, 3 hr): 2.2 Log10 CFU/mL | Log10 CFU/mL (E. coli; 5x MIC, 1 hr): 3.0 Log10 CFU/mL | concentration with bactericidal activity (≥3-log 10 CFU/mL reduction at 24 hours) (E. coli; E. coli, 37° C.): ≥ 1 ×MIC | Log10 CFU/mL (E. cloacae; 0.2x MIC, 1 hr): 5.0 Log10 CFU/mL | Log10 CFU/mL (E. cloacae; 0.2x MIC, 3 hr): 5.0 Log10 CFU/mL | Log10 CFU/mL (E. cloacae; 0.2x MIC, 24 hr): 9.0 Log10 CFU/mL | Log10 CFU/mL (E. cloacae; 1x MIC, 1 hr): 2.4 Log10 CFU/mL | Log10 CFU/mL (E. cloacae; 1x MIC, 3 hr): 1.5 Log10 CFU/mL | Log10 CFU/mL (E. cloacae; 1x MIC, 24 hr): 2.3 Log10 CFU/mL | Log10 CFU/mL (E. cloacae; 2x MIC, 1 hr): 1.6 Log10 CFU/mL | Log10 CFU/mL (E. cloacae; 2x MIC, 3 hr): 1.6 Log10 CFU/mL | Log10 CFU/mL (E. cloacae; 2x MIC, 24 hr): 1.6 Log10 CFU/mL | Log10 CFU/mL (E. cloacae; 5x MIC, 1 hr): 1.5 Log10 CFU/mL | Log10 CFU/mL (E. cloacae; 5x MIC, 3 hr): 1.5 Log10 CFU/mL | Log10 CFU/mL (E. cloacae; 5x MIC, 24 hr): 1.5 Log10 CFU/mL | concentration with bactericidal activity (≥3-log 10 CFU/mL reduction at 24 hours) (E. cloacae; E. cloacae, 37° C.): ≥ 1 ×MIC | MIC50 [1]: >64 µg/mL | MIC90 [1]: >64 µg/mL | MIC Range [1]: >64 µg/mL | MIC50 (Burkholderia cepacia): >64 µg/mL | MIC90 (Burkholderia cepacia): >64 µg/mL | MIC Range (Burkholderia cepacia): >64 µg/mL
